Measured values: paper PMC9880023

Biological target: HA-NRX1βS4(−), expressed on COS-7 cells
Assay: cell-based competitive binding assay (fluorescence microscopy); COS-7 cells expressing HA-NRX1βS4(−); biotin-AβOs fixed at 100 nM monomer equivalent, SorCS1-Fc varied 0–1,500 nM; 1 h at 4°C

B1: SorCS1 ectodomain tagged with human immunoglobulin Fc region (SorCS1-Fc) (Fc fusion)
chain: SLSCCPPQHPSSTPRRTLTPRGFPHPGPLGRAPATPPPLFMRPLFAVAPGDRALFLERAGGSRVSVATAARSGRRRRSGTEPEKIEPGEGASRSRRDMLKDGGQQGLGTGARDPGKATRFRMEELRLTSTTFALTGDSAHNQAMVHWSGHNSSVILILTKLYDYNLGSITESSLWRSTDYGTTYEKLNDKVGLKTILSYLYVCPTNKCKIMLLTDPEIESSLLISSDEGATYQKYRLNFYLQSLLFHPKQEDWILAYSQDQKLYSSAEFGRRWQLIQESVVPNRFYWSVMGSSKEPDLVHLEARTVDGHSIYLTCRMQNCTEANRNKPFPGYIDPDSLIVQDDYVFVQLTSGGRPHYYVSYRRSPFAQMKLPKYALPKDMHVISTDENQVFAAVQEWNQNDTYNLYISDTRGVYFTLALENVRSSRGPEGNVMIDLYEVAGIKGMFLANKKIDNQVKTFITYNKGRDWRLLQAPDADLRGDPVHCLLPYCSLHLHLKVSENPYTSGIIASRDTAPSIIVASGNIGSELSDSDISMFVSSDAGNTWRQIFEEEHSILYLDQGGVLVAMKHTSLPIRHLWLSFDEGRSWSKYSFTSIPLFVDGVLGEPGEETLIMTVFGHFSHRSEWQLVKVDYKSIFDRRCAEEDYRPWQLHSQGEACIMGAKRIYKKRKSERKCMQKYAGAMESEPCVCTEADFDCDYGYERHSNGQCLPAFWFNPSSLSKDCSLGQSYLNSAGYRKVVSNNCTDGVREQYTAKPQKCPGKAPRGLRIVTADGKLTAEQGHNVTLMVQLEEGDVQRTLIQVDFGDGIAVSYVNLSSMEDGIKHVYQNVGIFRVTVQVDNSLGSDSAVLYLHVTCPLEHVHLSLPFVTTKNKEVNATAVLWPSQVGTLTYVWWYGNNTEPLITLEGSISFKFTSEGMNTITVQVSAGNAILQDTKTIAVYEEFRSLRLAFSPNLDDYNPDIPEWRRDISRVIKKSLVEATGIPSQHILVAVLPGLPTAAELFVLPYQDGTRENKRSPEDLEQISEVLIHKLNQNLVHFELKPGVQVLVHAAHLTAAPLVDLTPTHS
IC50: 92.8 nM
